According to patent publication US20230265151A1, “GIP/GLP1 CO-AGONIST COMPOUNDS” (priority 2020, published 2023):

Assays:
human glucagon receptor [1] = biological target: human glucagon receptor (human, UniProt P47871 26-477); experiment: cell-based or functional assay
human glucagon receptor [2] = biological target: T1, human glucagon receptor (human, UniProt P47871 26-477); experiment: SPA competition vs [125I]-Gcg, hGcgR membranes
T1 construct: whole, on cells; also called hGCGR; hGcgR
Experimental: The binding buffer contains 25 mM 4-(2-hydroxyethyl)-1-piperazineethanesulfonic acid (HEPES), pH 7.4, 2.5 mM CaCl₂, 1 mM MgCh, 0.1% (w/v) bacitracin (Research Products), 0.003% (w/v) Polyoxyethylenesorbitan monolaurate (TWEEN®-20), and Roche Complete™ Protease Inhibitors without EDTA. […] Plates are sealed and mixed on a plate shaker (setting 6) for 1 minute and read with a PerkinElmer Trilux MicroBeta® scintillation counter after 12 hours of incubation/settling time at room temperature.
Data are analyzed using four-parameter (curve maximum, curve minimum, IC₅₀, Hill slope) nonlinear regression routines (Genedata Screener, version 12.0.4, Genedata AG, Basal, Switzerland). […] Values for Kᵢ are reported as the geometric mean, with error expressed as the standard error of the mean (SEM) and n is equal to the number of independent replicates (determined in assays performed on different days).
T1 sequence (P47871 26-477): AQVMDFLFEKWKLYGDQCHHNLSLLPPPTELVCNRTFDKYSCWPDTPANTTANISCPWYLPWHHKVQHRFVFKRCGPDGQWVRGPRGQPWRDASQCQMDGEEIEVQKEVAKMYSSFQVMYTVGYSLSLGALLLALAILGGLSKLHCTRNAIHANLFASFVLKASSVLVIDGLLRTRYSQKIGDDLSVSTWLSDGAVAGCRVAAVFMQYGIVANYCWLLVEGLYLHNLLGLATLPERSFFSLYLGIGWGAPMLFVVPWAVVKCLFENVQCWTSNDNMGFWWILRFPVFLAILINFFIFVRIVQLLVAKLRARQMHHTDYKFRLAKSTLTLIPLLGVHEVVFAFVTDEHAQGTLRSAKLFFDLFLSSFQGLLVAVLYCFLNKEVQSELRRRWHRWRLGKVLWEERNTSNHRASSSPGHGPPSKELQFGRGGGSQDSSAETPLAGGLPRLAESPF

Binder	cAMP EC50 (1.0% HSA) (human glucagon receptor [1])	Ki (human glucagon receptor [2])
YXEGTXTSDXSIXLDXKAQXEFIXXLIEGGKSSGAPPPS (Aib2, αMeF6, 4Pal10, αMeL13, Orn16, Aib20, D-Glu24, αMeY25; acylated K17, K31 (groups as in name); C-terminal amide)	> 9.95 µM	
YXEGTXTSDXSIXLDXKAQXEFIXXLIEGGKSSGAPPPS (Aib2, αMeF(2F)6, 4Pal10, αMeL13, Orn16, Aib20, D-Glu24, αMeY25; acylated K17, K31 (groups as in name); C-terminal amide) [Y-Aib-EGT-αMeF(2F)-TSD-4Pal-SI-αMeL-LD-Orn-K((εK)-(εK)-(γ-Glu)-CO-(CH2)12-CO2H)AQ-Aib-EFI-(D-Glu)-αMeY-LIEGGK((εK)-(εK)-(γ-Glu)-CO-(CH2)12-CO2H)SSGAPPPS-NH2, listing 1 of 10 here]	> 9.95 µM	
YXEGTXTSDXSIXLDXKAQXKFIXXLIEGGPSSGAPPPS (Aib2, αMeF(2F)6, 4Pal10, αMeL13, Orn16, Aib20, D-Glu24, αMeY25; acylated K17, K21 (groups as in name); C-terminal amide) [Y-Aib-EGT-αMeF(2F)-TSD-4Pal-SI-αMeL-LD-Orn-K((2-[2-(2-Amino-ethoxy)-ethoxy]-acetyl)2-CO-(CH2)12-CO2H)AQ-Aib-K((2-[2-(2-Amino-ethoxy)-ethoxy]-acetyl)2-CO-(CH2)12 …, listing 1 of 5 here]	> 9.95 µM	
YXEGTXTSDXSIXLDXKAQXEFIKXLIEGGPSSGAPPPS (Aib2, αMeF(2F)6, 4Pal10, αMeL13, Orn16, Aib20, αMeY25; acylated K17, K24 (groups as in name); C-terminal amide) [Y-Aib-EGT-aMeF(2F)-TSD-4Pal-SI-aMeL-LD-Orn-K((2-[2-(2-Amino-ethoxy)-ethoxy]-acetyl)2-CO-(CH2)12-CO2H)AQ-Aib-EFIK((2-[2-(2-Amino-ethoxy)-ethoxy]-acetyl)2-CO-(CH2 …, listing 1 of 4 here]	> 9.95 µM	
YXEGTXTSDXSIXLDXKAQXKFIXXLIEGGPSSGAPPPS (Aib2, αMeF(2F)6, 4Pal10, αMeL13, Orn16, Aib20, D-Glu24, αMeY25; acylated K17, K21 (groups as in name); C-terminal amide) [Y-Aib-EGT-αMeF(2F)-TSD-4Pal-SI-αMeL-LD-Orn-K((2-[2-(2-Amino-ethoxy)-ethoxy]-acetyl)-(γ-Glu)-(4-(4-tert-butylphenyl)butanoyl))AQ-Aib-K((2-[2-(2-Amino-ethoxy)-eth …, listing 2 of 5 here]	> 9.95 µM	
YXEGTXTSDXSIXLDXKAQXEFIKXLIEGGPSSGAPPPS (Aib2, αMeF(2F)6, 4Pal10, αMeL13, Orn16, Aib20, αMeY25; acylated K17, K24 (groups as in name); C-terminal amide) [Y-Aib-EGT-αMeF(2F)-TSD-4Pal-SI-αMeL-LD-Orn-K((2-[2-(2-Amino-ethoxy)-ethoxy]-acetyl)2-(γ-Glu)-CO-(CH2)14-CH3)AQ-Aib-EFIK((2-[2-(2-Amino-ethoxy)-ethoxy]-acetyl)2- …, listing 2 of 4 here]	> 9.95 µM	
YXEGTXTSDXSIXLDXKAQXEFIXXLIKGGPSSGAPPPS (Aib2, αMeF(2F)6, 4Pal10, αMeL13, Orn16, Aib20, D-Glu24, αMeY25; acylated K17, K28 (groups as in name); C-terminal amide) [Y-Aib-EGT-αMeF(2F)-TSD-4Pal-SI-αMeL-LD-Orn-K((2-[2-(2-Amino-ethoxy)-ethoxy]-acetyl)2-(γ-Glu)-CO-(CH2)12-CO2H)AQ-Aib-EFI-(D-Glu)-αMeY-LIK((2-[2-(2-Amino-ethoxy)- …, listing 1 of 2 here]	> 9.95 µM	
YXEGTXTSDXSIXLDXKAQXEFIXXLIEGGKSSGAPPPS (Aib2, αMeF(2F)6, 4Pal10, αMeL13, Orn16, Aib20, D-Glu24, αMeY25; acylated K17, K31 (groups as in name); C-terminal amide) [Y-Aib-EGT-αMeF(2F)-TSD-4Pal-SI-αMeL-LD-Orn-K((γ-Glu)-(2-[2-(2-Amino-ethoxy)-ethoxy]-acetyl)-CO-(CH2)12-CO2H)AQ-Aib-EFI-(D-Glu)-αMeY-LIEGGK((γ-Glu)-(2-[2-(2-Amin …, listing 2 of 10 here]	> 9.95 µM	
YXEGTXTSDXSIXLDXKAQXKFIXXLIEGGPSSGAPPPS (Aib2, αMeF(2F)6, 4Pal10, αMeL13, Orn16, Aib20, D-Glu24, αMeY25; acylated K17, K21 (groups as in name); C-terminal amide) [Y-Aib-EGT-αMeF(2F)-TSD-4Pal-SI-αMeL-LD-Orn-K((2-[2-(2-Amino-ethoxy)-ethoxy]-acetyl)-(y-Glu)-CO-(CH2)12-CO2H)AQ-Aib-K((2-[2-(2-Amino-ethoxy)-ethoxy]-acetyl)-(γ-G …, listing 3 of 5 here]	> 9.95 µM	
YXEGTXTSDXSIXLDXKAQXEFIKXLIEGGPSSGAPPPS (Aib2, αMeF(2F)6, 4Pal10, αMeL13, Orn16, Aib20, αMeY25; acylated K17, K24 (groups as in name); C-terminal amide) [Y-Aib-EGT-αMeF(2F)-TSD-4Pal-SI-αMeL-LD-Orn-K((2-[2-(2-Amino-ethoxy)-ethoxy]-acetyl)2-(γ-Glu)-CO-(CH2)12-CO2H)AQ-Aib-EFIK((2-[2-(2-Amino-ethoxy)-ethoxy]-acetyl)2 …, listing 3 of 4 here]	> 9.95 µM	
YXEGTXTSDXSIXLDXKAQXEFIXXLIEGGKSSGAPPPS (Aib2, αMeF(2F)6, 4Pal10, αMeL13, Orn16, K17(Z1), Aib20, D-Glu24, αMeY25, K31(Z1), C-term NH2; Z1=AEEA2-(γ-Glu)-(4-(4-tert-butylphenyl)butanoyl))		0.637 µM
YXEGTXTSDXSIXLDXKAQXKFIXXLIEGGPSSGAPPPS (Aib2, αMeF(2F)6, 4Pal10, αMeL13, Orn16, Aib20, D-Glu24, αMeY25; acylated K17, K21 (groups as in name); C-terminal amide) [Y-Aib-EGT-αMeF(2F)-TSD-4Pal-SI-αMeL-LD-Orn-K((2-[2-(2-Amino-ethoxy)-ethoxy]-acetyl)2-(γ-Glu)-CO-(CH2)14-CH3)AQ-Aib-K((2-[2-(2-Amino-ethoxy)-ethoxy]-acetyl)2-(γ- …, listing 4 of 5 here]	> 9.95 µM	
YXEGTXTSDXSIXLDXKAQXEFIKXLIEGGPSSGAPPPS (Aib2, αMeF(2F)6, 4Pal10, αMeL13, Orn16, Aib20, αMeY25; acylated K17, K24 (groups as in name); C-terminal amide) [Y-Aib-EGT-αMeF(2F)-TSD-4Pal-SI-αMeL-LD-Orn-K((2-[2-(2-Amino-ethoxy)-ethoxy]-acetyl)-(γ-Glu)-CO-(CH2)12-CO2H)AQ-Aib-EFIK((2-[2-(2-Amino-ethoxy)-ethoxy]-acetyl)-( …, listing 4 of 4 here]	> 9.95 µM	
YXEGTXTSDXSIXLDXKAQXKFIXXLIEGGPSSGAPPPS (Aib2, αMeF(2F)6, 4Pal10, αMeL13, Orn16, Aib20, D-Glu24, αMeY25; acylated K17, K21 (groups as in name); C-terminal amide) [Y-Aib-EGT-αMeF(2F)-TSD-4Pal-SI-αMeL-LD-Orn-K((2-[2-(2-Amino-ethoxy)-ethoxy]-acetyl)2-(γ-Glu)-CO-(CH2)12-CO2H)AQ-Aib-K((2-[2-(2-Amino-ethoxy)-ethoxy]-acetyl)2-(γ …, listing 5 of 5 here]	> 9.95 µM	
YXEGTXTSDXSIXLDXKAQXEFIXXLIEGGKSSGAPPPS (Aib2, αMeF(2F)6, 4Pal10, αMeL13, Orn16, Aib20, D-Glu24, αMeY25; acylated K17, K31 (groups as in name); C-terminal amide) [Y-Aib-EGT-αMeF(2F)-TSD-4Pal-SI-αMeL-LD-Orn-K((2-[2-(2-Amino-ethoxy)-ethoxy]-acetyl)2-(εK)-CO-(CH2)12-CO2H)AQ-Aib-EFI-(D-Glu)-αMeY-LIEGGK((2-[2-(2-Amino-ethoxy)- …, listing 3 of 10 here]	> 9.95 µM	
YXEGTXTSDXSIXLDXKAQXEFIXXLIEGGKSSGAPPPS (Aib2, αMeF(2F)6, 4Pal10, αMeL13, Orn16, Aib20, D-Glu24, αMeY25; acylated K17, K31 (groups as in name); C-terminal amide) [Y-Aib-EGT-αMeF(2F)-TSD-4Pal-SI-αMeL-LD-Orn-K((εK)-(2-[2-(2-Amino-ethoxy)-ethoxy]-acetyl)2-(γ-Glu)-CO-(CH2)12-CO2H)AQ-Aib-EFI-(D-Glu)-αMeY-LIEGGK((εK)-(2-[2-(2-A …, listing 4 of 10 here]	> 9.95 µM	
YXEGTXTSDXSIXLDXKAQXEFIXXLIEGGKSSGAPPPS (Aib2, αMeF(2F)6, 4Pal10, αMeL13, Orn16, Aib20, D-Glu24, αMeY25; acylated K17, K31 (groups as in name); C-terminal amide) [Y-Aib-EGT-αMeF(2F)-TSD-4Pal-SI-αMeL-LD-Orn-K((γ-Glu)-(2-[2-(2-Amino-ethoxy)-ethoxy]-acetyl)2-CO-(CH2)12-CO2H)AQ-Aib-EFI-(D-Glu)-αMeY-LIEGGK((γ-Glu)-(2-[2-(2-Ami …, listing 5 of 10 here]	> 9.95 µM	
YXEGTXTSDXSIXLDXKAQXEFIXXLIKGGPSSGAPPPS (Aib2, αMeF(2F)6, 4Pal10, αMeL13, Orn16, Aib20, D-Glu24, αMeY25; acylated K17, K28 (groups as in name); C-terminal amide) [Y-Aib-EGT-αMeF(2F)-TSD-4Pal-SI-αMeL-LD-Orn-K((2-[2-(2-Amino-ethoxy)-ethoxy]-acetyl)2-(γ-Glu)-CO-(CH2)14-CH3)AQ-Aib-EFI-(D-Glu)-αMeY-LIK((2-[2-(2-Amino-ethoxy)-e …, listing 2 of 2 here]	> 9.95 µM	
YXEGTXTSDXSIXLDXKAQXEFIXXLIEGGKSSGAPPPS (Aib2, αMeF(2F)6, 4Pal10, αMeL13, Orn16, Aib20, D-Glu24, αMeY25; acylated K17, K31 (groups as in name); C-terminal amide) [Y-Aib-EGT-αMeF(2F)-TSD-4Pal-SI-αMeL-LD-Orn-K((2-[2-(2-Amino-ethoxy)-ethoxy]-acetyl)2-(εK)-(γ-Glu)-CO-(CH2)12-CO2H)AQ-Aib-EFI-(D-Glu)-αMeY-LIEGGK((2-[2-(2-Amino- …, listing 6 of 10 here]	> 9.95 µM	
YXEGTXTSDXSIXLDXKAQXEFIXXLIEGGKSSGAPPPS (Aib2, αMeF(2F)6, 4Pal10, αMeL13, Orn16, Aib20, D-Glu24, αMeY25; acylated K17, K31 (groups as in name); C-terminal amide) [Y-Aib-EGT-αMeF(2F)-TSD-4Pal-SI-αMeL-LD-Orn-K((2-[2-(2-Amino-ethoxy)-ethoxy]-acetyl)3-(γ-Glu)-CO-(CH2)12-CO2H)AQ-Aib-EFI-(D-Glu)-αMeY-LIEGGK((2-[2-(2-Amino-ethox …, listing 7 of 10 here]	> 9.95 µM	
YXEGTXTSDKSIXLDXKAQXEFIXXLIEGGPSSGAPPPS (Aib2, αMeF(2F)6, αMeL13, Orn16, Aib20, D-Glu24, αMeY25; acylated K10, K17 (groups as in name); C-terminal amide)	> 9.95 µM	
YXEGTXTSDXSIXLDXKAQXEFIXXLIEGGKSSGAPPPS (Aib2, αMeF(2F)6, 4Pal10, αMeL13, Orn16, Aib20, D-Glu24, αMeY25; acylated K17, K31 (groups as in name); C-terminal amide) [Y-Aib-EGT-αMeF(2F)-TSD-4Pal-SI-αMeL-LD-Orn-K((2-[2-(2-Amino-ethoxy)-ethoxy]-acetyl)-(γ-Glu)-(2-[2-(2-Amino-ethoxy)-ethoxy]-acetyl)-CO-(CH2)12-CO2H)AQ-Aib-EFI-(D …, listing 8 of 10 here]	> 9.95 µM	
YXEGTXTSDXSIXLDXKAQXEFIXXLIEGGKSSGAPPPS (Aib2, αMeF(2F)6, 4Pal10, αMeL13, Orn16, Aib20, D-Glu24, αMeY25; acylated K17, K31 (groups as in name); C-terminal amide) [Y-Aib-EGT-αMeF(2F)-TSD-4Pal-SI-αMeL-LD-Orn-K((εK)-(γ-Glu)-CO-(CH2)12-CO2H)AQ-Aib-EFI-(D-Glu)-αMeY-LIEGGK((εK)-(γ-Glu)-CO-(CH2)12-CO2H)SSGAPPPS-NH2, listing 9 of 10 here]	> 9.95 µM	
YXEGTXTSDXSIXLDXKAQXEFIXXLIEGGKSSGAPPPS (Aib2, αMeF(2F)6, 4Pal10, αMeL13, Orn16, Aib20, D-Glu24, αMeY25; acylated K17, K31 (groups as in name); C-terminal amide) [Y-Aib-EGT-αMeF(2F)-TSD-4Pal-SI-αMeL-LD-Orn-K((2-[2-(2-Amino-ethoxy)-ethoxy]-acetyl)-(γ-Glu)-CO-(CH2)14-CH3)AQ-Aib-EFI-(D-Glu)-αMeY-LIEGGK((2-[2-(2-Amino-ethoxy) …, listing 10 of 10 here]	> 9.95 µM	
